Source: the supplement of paper PMC7877785
± gives the uncertainty stated by the source.

Assay: self-splicing fitness, log relative to wild type (ln ratio); higher = more splicing; Tetrahymena group I intron in knt gene, E. coli kanamycin selection, DiMSum; sequences stand for … in CUCUCU…GGAGGGAAAAGUUAUCAGGCAUGCACCUGGUAGCUAGUCUUUAAACCAAUAGAUUGCAUCGGUUUAAAAGGCAAGACCGUCAAAUUGCGGGAAAGGGGUCAACAGCCGUUCAGUACCAAGUCUCAGGGGAAACUUUGAGAUGGCCUUGCAAAGGGUAUGGUAAUAAGCUGACGGACAUGGUCCUAACCACGCAGCCAAGUCCUAAGUCAACAGAUCUUCUGUUGAUAUGGAUGCAGUUCACAGACUAAAUGUCGGUCGGGGAAGAUGUAUUCUUCUCAUAAGAUAUAGUCGGACCUCUCCUUAAUGGGAGCUAGCGGAUGAAGUGAUGCAACACUGGAGCCGCUGGGAACUAAUUUGUAUGCGAAAGUAUAUUGAUUAGUUUUGGAGUACUCGUGGUCG
Procedure, shortened: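 The eight P1ex-region nucleotides of an intron in the knt kanamycin-resistance gene on pET-22b(+) were all randomised and the library put into E. coli BL21(DE3). Six replicate transformations were grown overnight at 37°C or 30°C on LB agar with or without 25 μg/mL kanamycin, together with 100 μg/mL carbenicillin, 50 μM IPTG and 0.2% rhamnose. Colonies were pooled and amplicon-sequenced on an Illumina HiSeq 2500. Fitness from DiMSum is the error-weighted combination of wild-type-normalised replicate fold changes, kanamycin over none.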

Sequence | self-splicing fitness (ln) (30 °C) | self-splicing fitness (ln) (37 °C)
AGAGAGCAAUAUUACGCUCA | -2.44 ± 0.27 | -1.11 ± 0.21
CAUGAGCAAUAUUACGGCUA | -2.75 ± 0.45 | -1.87 ± 0.2
GCAGAGCAAUAUUACGUACU | -3.98 ± 0.3 | -2.29 ± 0.32
AAAAAGCAAUAUUACGAUAC | -2.28 ± 0.16 | -0.696 ± 0.13
UUCGAGCAAUAUUACGCUUG | -3.26 ± 0.41 | 
AAUGAGCAAUAUUACGGCAA | -2.55 ± 0.34 | -1.85 ± 0.35
GUCCAGCAAUAUUACGUCAC | -2.41 ± 0.14 | -0.6 ± 0.13
CGCUAGCAAUAUUACGUACG | -1.66 ± 0.13 | -1.07 ± 0.13
AAAUAGCAAUAUUACGCGAU | -3.4 ± 0.2 | -1.47 ± 0.14
UCCAAGCAAUAUUACGCAAC | -4.2 ± 0.37 | -3.04 ± 0.31
UAGGAGCAAUAUUACGGACU | -3.22 ± 0.25 | -2.41 ± 0.22
GCACAGCAAUAUUACGGUUU | -0.633 ± 0.047 | 0.145 ± 0.057
CAUCAGCAAUAUUACGUGGG | -1.9 ± 0.075 | -1.71 ± 0.1
CCACAGCAAUAUUACGGAGG | -3.92 ± 0.22 | -1.16 ± 0.12
UAGAAGCAAUAUUACGCACA | -0.416 ± 0.098 | -0.144 ± 0.16
GUCAAGCAAUAUUACGAACC | -3.76 ± 0.42 | 
CUUGAGCAAUAUUACGAUCA |  | -2.89 ± 0.48
CACUAGCAAUAUUACGAGGA | -4.01 ± 0.31 | -1.49 ± 0.15
AGGUAGCAAUAUUACGUGUU | -2.894 ± 0.016 | -1.6 ± 0.034
GUAUAGCAAUAUUACGAUCG | -1.69 ± 0.33 | -0.878 ± 0.31
UGCCAGCAAUAUUACGCGCA | -2.51 ± 0.28 | -1.06 ± 0.16
UAACAGCAAUAUUACGUACA | -0.576 ± 0.071 | -0.319 ± 0.092
AGGUAGCAAUAUUACGACAG | -1.6 ± 0.017 | -0.956 ± 0.034
AAGUAGCAAUAUUACGUCCA | -0.464 ± 0.18 | -0.521 ± 0.17
UCGGAGCAAUAUUACGUACG | -1.21 ± 0.14 | -0.867 ± 0.18
GCGAAGCAAUAUUACGGUAA | -2.4 ± 0.15 | -1.65 ± 0.12
UUCAAGCAAUAUUACGAUAC | -2.1 ± 0.17 | -2.58 ± 0.48

Sequence | self-splicing fitness (ln) (30 °C) | self-splicing fitness (ln) (37 °C)
GAACAGCAAUAUUACGCCCA | 0.617 ± 0.17 | -0.316 ± 0.24
CCGCAGCAAUAUUACGAAUG | -1.2 ± 0.063 | -0.305 ± 0.065
GAUCAGCAAUAUUACGACCU | -0.708 ± 0.089 | -0.346 ± 0.1
GCGUAGCAAUAUUACGUCUG | -3.48 ± 0.23 | -3.38 ± 0.24
UUCGAGCAAUAUUACGUUCA | -1.99 ± 0.13 | -1.15 ± 0.13
UGCUAGCAAUAUUACGACCU | -0.548 ± 0.088 | -0.345 ± 0.1
CCGGAGCAAUAUUACGGAUA | -2.42 ± 0.2 | -1.18 ± 0.23
AUAAAGCAAUAUUACGAGCG | -0.041 ± 0.086 | 0.101 ± 0.09
GAAAAGCAAUAUUACGAAUU | -1.37 ± 0.11 | -0.667 ± 0.12
UAACAGCAAUAUUACGACAU | -1.139 ± 0.011 | -0.372 ± 0.032
AAAAAGCAAUAUUACGUGGA | -2.42 ± 0.1 | -1.86 ± 0.1
GUUAAGCAAUAUUACGUUAG | -2.47 ± 0.13 | -1.32 ± 0.14
AUGGAGCAAUAUUACGAUCA |  | -1.09 ± 0.25
CGUAAGCAAUAUUACGGGGC | -3.43 ± 0.26 | -2.35 ± 0.23
GCGGAGCAAUAUUACGUCGU | -4.11 ± 0.35 | -2.24 ± 0.36
GACUAGCAAUAUUACGUGAC | -1.34 ± 0.085 | -1.39 ± 0.12
GAUGAGCAAUAUUACGCAUC | -2.56 ± 0.25 | -2.32 ± 0.28
CGACAGCAAUAUUACGAUAG | -0.383 ± 0.06 | -0.728 ± 0.07
GCUUAGCAAUAUUACGUAUG | -1.6 ± 0.18 | -1.17 ± 0.2
UCGUAGCAAUAUUACGAGUC | -3.23 ± 0.17 | -2.47 ± 0.17
CCGUAGCAAUAUUACGCUUA | -3.52 ± 0.45 | -1.7 ± 0.35
CUAUAGCAAUAUUACGGGAC | -2.51 ± 0.3 | 
AUCGAGCAAUAUUACGCAGU | -2.07 ± 0.23 | -1.85 ± 0.33
ACCCAGCAAUAUUACGAGUC | -4.16 ± 0.15 | -2.3 ± 0.15
CCCGAGCAAUAUUACGUCGG | -3.02 ± 0.25 | -2.41 ± 0.32
GUCGAGCAAUAUUACGUUAU | -0.538 ± 0.12 | -2.13 ± 0.21
UACAAGCAAUAUUACGCGCA | -0.13 ± 0.081 | 0.163 ± 0.11

Sequence | self-splicing fitness (ln) (30 °C) | self-splicing fitness (ln) (37 °C)
UUAGAGCAAUAUUACGUCAU | -3.46 ± 0.31 | -2.25 ± 0.33
AGCGAGCAAUAUUACGGUGU | -2.55 ± 0.24 | -2.37 ± 0.24
UUUUAGCAAUAUUACGAGGG | -2.9 ± 0.42 | 
AGGAAGCAAUAUUACGACCC | -0.677 ± 0.23 | -1.73 ± 0.26
GCGCAGCAAUAUUACGCUGC |  | -3.59 ± 0.43
CACGAGCAAUAUUACGUAGA | -2.34 ± 0.095 | -3.42 ± 0.29
UUAGAGCAAUAUUACGUGCC |  | -1.58 ± 0.33
ACGUAGCAAUAUUACGUUGG | -4.55 ± 0.31 | -2.85 ± 0.25
CAGCAGCAAUAUUACGGGAG | -1.2 ± 0.061 | -0.908 ± 0.082
AUCCAGCAAUAUUACGGGAC | -4.17 ± 0.27 | -3.04 ± 0.2
AAGGAGCAAUAUUACGACGU | -1.88 ± 0.13 | -0.122 ± 0.14
CCAUAGCAAUAUUACGACCA | -2.52 ± 0.46 | 
UGGUAGCAAUAUUACGCACU | -2.2 ± 0.19 | -0.474 ± 0.22
AUCCAGCAAUAUUACGCACA | -0.451 ± 0.098 | 0.366 ± 0.1
ACAUAGCAAUAUUACGGACU | -0.288 ± 0.057 | 0.36 ± 0.074
UCGUAGCAAUAUUACGGAAG | -2.55 ± 0.29 | -1.94 ± 0.28
CACAAGCAAUAUUACGUAUG | -2.55 ± 0.095 | -1.08 ± 0.085
CACUAGCAAUAUUACGUUUU | -2.97 ± 0.12 | -2.4 ± 0.13
UCCUAGCAAUAUUACGUCCU | -3.56 ± 0.15 | -1.92 ± 0.14
AUAGAGCAAUAUUACGCGAA | -1.34 ± 0.093 | -1.1 ± 0.11
UUUAAGCAAUAUUACGGCGC | -1.15 ± 0.17 | -0.784 ± 0.23
AGGUAGCAAUAUUACGGGCU | -0.801 ± 0.016 | -0.848 ± 0.035
UAAGAGCAAUAUUACGAUGG | -3.51 ± 0.21 | -1.68 ± 0.16
AGAUAGCAAUAUUACGCCGU | -0.974 ± 0.11 | -0.953 ± 0.12
UAGUAGCAAUAUUACGAGUA | -1.44 ± 0.11 | -0.61 ± 0.084
